In assay [1] the target is T1, peptide A3 (negative control fragment of human TNFR1) (human, cysteine pairing not given here; also: biotinylated, position not given here).
T1 construct: also called control peptide
T1 peptide: SGSGNDCPGPGQDTDCREC
Briefly: BIAcore, biotinylated peptide A3 on SA chip. On the technique in general: In SPR one partner is held on a chip, and binding of the other changes the refractive index at the surface.

Assay [2] concerns the target T2, peptide D2 (domain-1 peptide of human TNFR1) (human, cysteine pairing not given here; also: biotinylated, position not given here).
T2 construct: also called peptide 1
T2 peptide: SGSGNSICCTKCHKGTYLY
Briefly: BIAcore, biotinylated peptide D2 on SA chip.

For assay [3], the target named is T3, peptide D5 (domain-3 peptide of human TNFR1) (human, also: biotinylated, position not given here).
T3 construct: also called peptide 2
T3 peptide: SGSGCRKNQYRHYWSENLF
Briefly: BIAcore, biotinylated peptide D5 on SA chip.

Assay [4] addresses T4, peptide E5 (overlapping domain-3 peptide of human TNFR1) (human, also: biotinylated, position not given here).
T4 construct: also called peptide 3
T4 peptide: SGSGNQYRHYWSENLFQCF
As to the kind of experiment: BIAcore, biotinylated peptide E5 on SA chip.

Assay [5] deals with T5, TNFR1-Fc fusion (R&D Systems Cat #372-RI) (human, UniProt P19438 30-211).
T5 construct: range 30-211; also called TNFR1-containing beads; not shown: Human IgG1 (Pro100-Lys330)
As to the kind of experiment: receptor binding assay: TNFR1-Fc on beads incubated with the dAb, then with TNFα (blocked ligand); % inhibition of TNFα binding to TNFR1.

Assay [6] has as its target T5, TNFR1-Fc fusion (R&D Systems Cat …). Briefly: receptor binding assay: TNFR1-Fc on anti-IgG beads, dAb titrated, blocked ligand TNFα detected with biotinylated anti-TNFα and fluorescent streptavidin (FMAT). As for the experimental part: The potency of the dAbs was determined against human TNFR1 in a receptor binding assay. This assay measures the binding of TNF-alpha to TNFR1 and the ability of soluble dAb to block this interaction. The TNFR1-Fc fusion (R&D Systems, Cat#372-RI.) is captured on a bead pre-coated with goat anti-human IgG (Spherotech, Cat#HUP-60-S). The receptor coated beads are incubated with TNF-alpha (10 ng/ml, Peprotech Cat#300-01A), dAb, biotin conjugated anti-TNF-alpha (Hycult Biotechnology Cat#HM2027.) and streptavidin Alexa Fluor 647 (Molecular Probes, (Invitrogen) Cat#32357) in a black sided clear bottomed 384 well plate. After 6 hours the plate is read on the ABI 8200 Cellular Detection system and bead associated fluorescence determined. If the dAb blocks TNF-alpha binding to TNFR1 the fluorescent intensity will be reduced.

Assay [7] concerns the target T6, human TNFR1 (recombinant, R&D Systems cat no. 636-R1/CF, biotinylated) (human, UniProt P19438 30-211, limits assumed, biotinylated with EZ-Link NHS-LC-LC-biotin).
T6 construct: it is not tied to the BIAcore reagent; also called p55; hTNFR1
T6 sequence (looked up): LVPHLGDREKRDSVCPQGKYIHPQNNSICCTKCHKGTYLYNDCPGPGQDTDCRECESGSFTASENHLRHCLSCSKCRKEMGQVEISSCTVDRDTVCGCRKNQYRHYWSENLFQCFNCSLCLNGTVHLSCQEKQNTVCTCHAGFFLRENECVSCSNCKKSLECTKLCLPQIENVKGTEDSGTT
Briefly: BIAcore, human TNFR1 on SA chip.

The next assay has as its target T7, rat albumin (rat, UniProt P02770 25-608).
T7 construct: also called rat serum albumin
Briefly: BIAcore; rat albumin.

The target of assay [8] is T8, mouse serum albumin (MSA, Sigma-Aldrich) (mouse, UniProt P07724 25-608).
T8 construct: also called mouse albumin
Briefly: BIAcore; mouse albumin.

Assay [9] concerns the target T9, human TNFR1 on MRC-5 cells (human, UniProt P19438 30-455).
T9 sequence (looked up): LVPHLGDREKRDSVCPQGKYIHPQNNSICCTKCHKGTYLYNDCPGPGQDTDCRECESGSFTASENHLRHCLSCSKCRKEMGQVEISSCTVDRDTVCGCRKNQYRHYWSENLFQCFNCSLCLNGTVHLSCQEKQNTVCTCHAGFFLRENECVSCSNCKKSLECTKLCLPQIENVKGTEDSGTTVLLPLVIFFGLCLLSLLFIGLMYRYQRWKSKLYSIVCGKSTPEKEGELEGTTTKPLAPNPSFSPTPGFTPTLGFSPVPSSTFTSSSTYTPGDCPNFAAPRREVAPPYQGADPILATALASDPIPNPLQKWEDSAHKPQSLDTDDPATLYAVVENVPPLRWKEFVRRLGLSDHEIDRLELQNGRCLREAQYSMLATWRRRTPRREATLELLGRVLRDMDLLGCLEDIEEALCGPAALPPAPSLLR
Briefly: cell-based or functional assay.

Assay [10] concerns the target T10, human serum albumin (HSA, Sigma-Aldrich) (human, UniProt P02768 25-609).
T10 construct: also called human albumin
Briefly: BIAcore, HSA on CM5 chip. In outline: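 HSA immobilised on a CM5 chip by EDC/NHS amine coupling. Constructs (anti-TNFR1 dAb–linker–AlbudAb, N- to C-terminal) injected at 1 μM over the surface, with binding followed by SPR.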

Assay [11] deals with T8, mouse serum albumin (MSA, Sigma-Aldrich). Briefly: BIAcore, MSA on CM5 chip. An outline of the steps:
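DOM0100 anti-TNFR1 dAb–linker–AlbudAb fusions were injected at 1 μM over MSA amine-coupled to a CM5 chip. Binding was monitored by SPR, and off-rates were determined.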

Assay [12] has as its target dog TNFR1 (recombinant, R&D Systems cat no. 4017-TR-025/CF, biotinylated) (dog). Briefly: BIAcore, dog TNFR1 on SA chip.
Assay [13] addresses T6, human TNFR1 (recombinant, R&D Systems …). As to the kind of experiment: BIAcore, human TNFR1.
Assay [14] deals with T9, human TNFR1 on MRC-5 cells. As to the kind of experiment: cell-based or functional assay. This is another data set of the same source.
Assay [15] concerns the target T6, human TNFR1 (recombinant, R&D Systems …). Briefly: BIAcore, human TNFR1 on SA chip. The source says: (§1) A significant advantage for an anti-TNFR1 dAb would be cross-reactivity between different species. Given the limited conservation of the sequence of the extracellular domain of TNFR1 between mouse, dog, Cynomologus monkey and human (FIG. 6), it would be exceptional for any antibody or single variable domain to recognize TNFR1 of these different species at similar affinities. […] For each of these experiments the TNFR1 was biotinylated using EZ-Link NHS-LC-LC-biotin (Pierce cat no. 21343), according to the manufacturer's instructions, followed by binding of the biotinylated TNFR1 to a Streptavidin-coated BIAcore chip. […] Examples for binding to the different species are shown in FIGS. 7 and 8, with a summary of the results in Table 2.
The source holds these as a separate data set.

Assay [16] has as its target T11, mouse TNFR1 (recombinant, R&D Systems cat no. 425-R1-050/CF, biotinylated) (mouse, UniProt P25118 22-212, biotinylated with EZ-Link NHS-LC-LC-biotin).
T11 construct: also called murine TNFR1; biotinylated mouse TNFR1
T11 sequence (looked up): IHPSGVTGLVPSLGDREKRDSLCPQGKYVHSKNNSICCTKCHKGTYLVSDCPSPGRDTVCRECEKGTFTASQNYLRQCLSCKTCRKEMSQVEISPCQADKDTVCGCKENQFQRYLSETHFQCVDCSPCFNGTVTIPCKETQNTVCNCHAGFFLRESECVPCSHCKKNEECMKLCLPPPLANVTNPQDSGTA
Briefly: BIAcore, mouse TNFR1 on SA chip.
Description: as §1

Assay [17] concerns the target T1, peptide A3 (negative control fragment …). Briefly: BIAcore, biotinylated peptide A3 on SA chip.
The target in assay [18] is T2, peptide D2 (domain-1 peptide of human …). As to the kind of experiment: BIAcore, biotinylated peptide D2 on SA chip, dAb at 2.5 µM.
Assay [19] deals with T3, peptide D5 (domain-3 peptide of human …). As to the kind of experiment: BIAcore, biotinylated peptide D5 on SA chip, dAb at 2.5 µM.
The target of assay [20] is T4, peptide E5 (overlapping domain-3 …). Briefly: BIAcore, biotinylated peptide E5 on SA chip, dAb at 2.5 µM.
The target in assay [21] is T8, mouse serum albumin (MSA, Sigma-Aldrich). Briefly: BIAcore, MSA; DMS0168 (DOM7m-16 AlbudAb).
Assay [22] has the same target. Briefly: BIAcore, MSA; DMS0169 (DOM7h-11-12 AlbudAb).

Read-outs that look alike come from different tables or passages of the source. Ends that are not written are not given here.

T10 sequence (P02768 25-609 limits assumed): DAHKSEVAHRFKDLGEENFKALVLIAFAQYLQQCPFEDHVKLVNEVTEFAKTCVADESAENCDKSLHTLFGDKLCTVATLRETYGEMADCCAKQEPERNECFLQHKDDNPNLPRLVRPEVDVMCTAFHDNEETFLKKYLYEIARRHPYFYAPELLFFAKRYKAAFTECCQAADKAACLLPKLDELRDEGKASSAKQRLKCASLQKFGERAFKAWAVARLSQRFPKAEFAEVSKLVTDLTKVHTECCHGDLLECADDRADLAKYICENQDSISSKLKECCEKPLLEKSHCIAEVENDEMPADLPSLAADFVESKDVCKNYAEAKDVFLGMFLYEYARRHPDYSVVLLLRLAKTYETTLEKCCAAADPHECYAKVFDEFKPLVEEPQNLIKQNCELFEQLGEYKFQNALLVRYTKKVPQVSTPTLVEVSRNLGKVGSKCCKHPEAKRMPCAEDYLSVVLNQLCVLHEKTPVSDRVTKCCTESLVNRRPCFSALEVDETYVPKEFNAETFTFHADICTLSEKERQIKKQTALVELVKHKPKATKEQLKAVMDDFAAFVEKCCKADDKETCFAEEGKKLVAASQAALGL
T7 sequence (P02770 25-608 limits assumed): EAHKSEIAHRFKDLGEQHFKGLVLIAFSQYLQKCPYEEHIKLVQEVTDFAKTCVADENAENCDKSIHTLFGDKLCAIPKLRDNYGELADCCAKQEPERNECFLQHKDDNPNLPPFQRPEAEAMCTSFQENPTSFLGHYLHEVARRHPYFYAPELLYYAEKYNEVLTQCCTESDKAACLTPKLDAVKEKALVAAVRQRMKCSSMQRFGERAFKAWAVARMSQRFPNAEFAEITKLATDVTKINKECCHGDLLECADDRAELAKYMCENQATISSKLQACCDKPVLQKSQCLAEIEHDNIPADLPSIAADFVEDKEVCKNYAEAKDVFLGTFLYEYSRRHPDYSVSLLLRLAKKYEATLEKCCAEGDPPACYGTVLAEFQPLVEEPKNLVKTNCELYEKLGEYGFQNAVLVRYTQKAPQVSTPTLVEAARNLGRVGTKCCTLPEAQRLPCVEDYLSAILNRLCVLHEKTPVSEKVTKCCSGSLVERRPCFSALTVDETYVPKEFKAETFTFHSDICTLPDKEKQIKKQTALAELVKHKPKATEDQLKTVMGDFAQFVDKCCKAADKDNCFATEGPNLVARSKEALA

B1: DOM1h-131-511 (other)
VH: EVQLLESGGGLVQPGGSLRLSCAASGFTFAHETMVWVRQAPGKGLEWVSHIPPVGQDPFYADSVKGRFTISRDNSKNTLYLQMNSLRAEDTAVYYCALLPKRGPWFDYWGQGTLVTVSS
notes: also called control dAb
Take B1: the binding result in assay [1], in assay [2], in assay [3] and in [4] was “no binding (tested: 2.5 µM)” each time. Moreover, the “IC50 (read off the curve)” value in assay [5] and in assay [6] was approximately 0.1 nM throughout.

B2: DOM1h-543 (other)
VH: EVQLLESGGGLVQPGGSLRLSCAASGFTFMRYRMHWVRQAPGKGLEWVSSIDSNGSSTYYADSVKGRFTISRDNSKNTLYLQMNSLRAEDTAVYYCAKDRTERSPVFDYWGQGTLVTVSS
notes: VH dAb
Turning to B2, in [7], the binding result is listed as “binds”.

B3: DMS0182 (bispecific antibody)
chain: EVQLLESGGGLVQPGGSLRLSCAASGFTFVKYSMGWVRQAPGKGPEWVSQISNTGDRTYYADSVKGRFTISRDNSKNTLYLQMNSLRAEDTAVYYCAIYTGRWEPFDYWGQGTLVTVSSASTDIQMTQSPSSLSASVGDRVTITCRASRPIGTTLSWYQQKPGKAPKLLIWFGSRLQSGVPSRFSGSGSGTDFTLTISSLQPEDFATYYCAQAGTHPTTFGQGTKVEIKRAAAEQKLISEEDLN
notes: in-line fusion of an anti-TNFR1 dAb and an anti-serum albumin dAb (AlbudAb)
Consider B3, for which the equilibrium dissociation constant (Kd) (in the assay with rat albumin; in assay [8]) was more than 1000 nM throughout. Further, the “ND50 (MRC5)” value in assay [9] was found to be 6 nM. Further, the koff in assay [10] stood at 0.17 s⁻¹; in [11], 0.75 s⁻¹.

B4: DOM1h-574-16 (other)
VH: EVQLLESGGGLVQPGGSLRLSCAASGFTFVKYSMGWVRQAPGKGPEWVSQISNTGDRTYYADSVKGRFTISRDNSKNTLYLQMNSLRAEDTAVYYCAIYTGRWEPFDYWGQGTLVTVSS
notes: VH dAb; also called DOM1h-57-16 [sic]; the DOM0100 dAb
Take B4: the Kd was 20 nM in assay [12], 1 nM in assay [13], 1 nM in assay [15] and 20 nM in assay [16]. In assay [14], the “MRC-5 ND50 (TNFα-mediated IL-8 release)” value turned out to be 8 nM. Further, the binding result in [17] is “no binding (tested: 2.5 µM)”; in [18], “binds”; in [19] it was “binds”; in assay [20], “binds”.

B5: DMS0168 (bispecific antibody)
chain: EVQLLESGGGLVQPGGSLRLSCAASGFTFVKYSMGWVRQAPGKGLEWVSQISNTADRTYYAHSVKGRFTISRDNSKNTLYLQMNSLRAEDTAVYYCAIYTGRWVPFEYWGQGTLVTVSSASTSGPSDIQMTQSPSSLSASVGDRVTITCRASQSIIKHLKWYQQKPGKAPKLLIYGASRLQSGVPSRFSGSGSGTDFTLTISSLQPEDFATYYCQQGARWPQTFGQGTKVEIKRAAAEQKLISEEDLN
notes: anti-TNFR1 dAb / AlbudAb in-line fusion
With B5, the “ND50 (MRC5)” value in [9] came to 16 nM. In addition, the Kd in [21] is approximately 200 nM.

B6: DMS0169 (bispecific antibody)
chain: EVQLLESGGGLVQPGGSLRLSCAASGFTFVKYSMGWVRQAPGKGLEWVSQISNTADRTYYAHSVKGRFTISRDNSKNTLYLQMNSLRAEDTAVYYCAIYTGRWVPFEYWGQGTLVTVSSASTSGPSDIQMTQSPSSLSASVGDRVTITCRASRPIGTMLSWYQQKPGKAPKLLILFGSRLQSGVPSRFSGSGSGTDFTLTISSLQPEDFATYYCAQAGTHPTTFGQGTKVEIKRAAAEQKLISEEDLN
notes: as for B5
B6: in assay [9], the “ND50 (MRC5)” value is 2.7 nM. In addition, in assay [22], the Kd is approximately 200 nM.

As a reminder, the Kd is the free concentration of one partner at which half of the binding sites on the other are occupied at equilibrium, for simple one-to-one binding. What is called koff is a measure of how fast the partners let go of each other. The low end stands for a long-lived complex, the high end for a short-lived complex.

Source of the values: US20120107330A1 (published 2012).
